Data as given in the supplement of paper PMC9170038.

These sequences were tested on MS2 coat protein (assay: apparent KD of MS2 coat protein; higher = weaker reporter binding). Settings: Eterna round: R107; input ligand: arginine 13.2 mM.
Method in brief: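 Titration buffer: 100 mM Tris-HCl pH 7.5, 80 mM KCl, 4 mM MgCl2, without or with constant ligand. Designed RNA switches transcribed on-chip from Illumina sequencing clusters received SNAP-549-labelled MS2 coat protein in twofold steps from 0.7 or 1.5 nM to 3 µM. Apparent KD is the median per design of fits to normalised cluster binding curves.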

Sequence	apparent KD of MS2 coat protein [nM]
GCAUCCUAGUCGGCCGCCACUGACAUGAGGAUCACCCAUGUACAUGAGGAUCACCCAUGUUGUAGCAGGACCGGGACUAGGAUGC [SS Tryp B #17]	176
AUAACAUGAGGAUCACCCAUGUAAGCUGAAGGAGCGGACGAAAGUCCAGGUAGGUCGCAGCGCUCCUUCACCUCAUGAGAAGGAG [(M1)-(M2)-(Arg1)-(Arg2)-(A)'-(M)'-(A)''_Design2]	23.4
CGGUAACCACAUGAGGAUCACCCAUGUGAAGGAGCGGCGAAUAAGCCAGGUAGGUCGCGCAUGAAUAAAUCAUGUAGGUGCCGAA [XArg-A 15 NuPack]	31.2
GAGCUGAUGUAGGCCGGAUAUCCGGGAGAUACCAGUACAGAAAUGUACCCUUGGCAGCUCUUUCCUACAUGAGGAUCACCCAUGU [Ex Theophylline A 28]	17
AAUAACAUGAGGAUCACCCAUGUAAAAGAUACCAGAUGCAUGAUGAUCCCUUGGCAGCUUAAACGCGAUUGAUUACAAUCGCGAA [Mat - Same State Theophlline A - Mod of Eli - D10]	40.9
UACAUGAGGAUCACCCAUGUGUAGAGGGAUACCAGUGACAGUAAGCACCCUUGGCAGCCCGUGAACAAAGGGUGGGCAAAAUAGU [#16 Exclusion-TheophyllineA]	48.2
CGAUCUUUCGAAAGAAGGAUCUUGUCUGAUACCAGAGACGAAAGUCUCCCUUGGCAGCAGUGCCAACAUGAGGAUCACCCAUGUU [Theophylline A 11]	16
GUUAUAUUAAUUGAUACCAGCGAGAAAACAUGAGGAUCACCCAUGUUCGCCCAUGUUAAGCGCCCUUGGCAGCAAUUUUAUUAGC [AstrosExyTheB#2]	32.1
ACAUGAGGAUCACCCAUGUGCAGAACGGAUACCAGCGUCCUGGUACGCCCUUGGCAGCCGGACAUGAGGAUCACCCAUGUGUGGA [Exclusion Theophylline A GF29]	56
UCGCUCGCCGUAAGGCGAGCGAGUUGCGAUACCAGCCCGGAAACGGGCCCUUGGCAGCGCACAUGAGGAUCACCCAUGUCAUGUU [#1 Exclusion - Theophylline A Attempt #5 (HarryS)]	18.3
GGAUAGGACACGGCCGCCACUGCCUAGGAUACUAGCAACAUUUGGGUACAAGAGGAUCACCCUUGUAGGACCGGGUGUCCUAUCG	27.1
UGUAGUACCAGACAUGAGGAUCACCCAUGUCGAGGACCGGUACGGCCGCCACUCGGCAGUUUGCGUCCUCAGGUACUCCGGGUAA [Dianreti]	14.4
AGUACCAAUGAGGAUACCAGAGUGCGACGCCGAAACCUUGACAUGAGGAUCACCCAUGUACUCCCUUGGCAGCCUGUACUUGCCA [theeternabot_exclusion_MS2_Theo_B_17]	22.8
AAGAAGUUUUGAUUUUUAUGAAGUAGUGAUACCAGUCAAGAAAGAGACCCUUGGCAGCGCAACAUGAGGAUCACCCAUGUAAGAA [A random design]	26.2
ACGACGCAUACAGAUACCAGUAGCCGAGAAACAUGAGGAUCACCCAUGUCGAGCGACAACUGCCCUUGGCAGCUGUAUGCGUCAG [SSTheo B #12]	8.02
GAUAUGUAUCGAAGGAGCGGCCCUUGAUCCUCAUGAGACAUGAGGAUCACCCAUGUCUCGGGCCAGGUAGGUCGCGAUAUAUAUC [Astros-omei-mod3]	24.9
AUCGCACCUGGUGAUACCAGCAAUUGCUCGUGACAUGAGGAUCACCCAUGUGGCCAGUGAUGCCCUUGGCAGCAUGGUCGGUGCA [Same State - Theophylline B (Freestyle 25)]	98.2
AAUGUAUGGCACAUGAGGAUCACCCAUGUGCGAGGACCGGUACGGCCGCCACUCGGUCCUGGAUUCUUAUUACUAUACAUUAAUG [XTryp A #16]	14
GAAGACAUGAGGAUCACCCAUGUUACACACCGAGGACCGGUACGGCCGCCACUCGUAGGCCCUCGGCUCACCUGAGAUCCGCAUC [theeternabot_sameState_MS2_Trp_A_11]	17.5
GGUGAUCCGUAUCACCGGAUCAUCGGUGAUACCAGCAUCGAAAGAUGCCCUUGGCAGCACCAACAUGAGGAUCACCCAUGUAAUA [(M)'-(T)'-(M)''-(T1)-(T2)-(M1)-(M2)_Design6]	70.3
GGUGGGACUUGUGAUACCAGCCUAAUUCGAAUCGAAUUGCACAUGAGGAUCACCCAUGUCGGCCCUUGGCAGCAUGAGUAUUUAU [Aagexe]	104
CGCCACUCGAGUGAUCCUCACGAGUGGCUACGAGGACCGGUACGGCCGCCACUCGAAUUAACAUGAGGAUCACCCAUGUAAUCCA [Brourdmod09]	21.1
CUCUGAGUCCGCAAGGACUCAGAGGCGGAUACCAGCGAGGUCCAUCGCCCUUGGCAGCCGAACAUGAGGAUCACCCAUGUCGGUA [#1 Same State - Theophylline A Attempt #27 (HarryS)]	8.89
CUAUAAUAUAGAAGGAGCGUCGAAAAUGGGUAAACAUGAGGAUCACCCAUGUAAAGGGAACGACAGGUAGGUCGCUAUAUUAUAG [AstromonsSSArgB#12]	181
UAUCUACAUGAAUAGGUUAUUCGAUUAUUUCGAGGACCGGUACGGCCGCCACUCGUUAACAUAUACAUGAGGAUCACCCAUGUUA [JR_Nu_SSTryptoA_Sub024]	16
AUGUCGUUGAAUAUAGCGGCUUGGUGUGAUACCAGAAUGAUCUAAUUCCCUUGGCAGCAUUACAUGAGGAUCACCCAUGUUUAGG [SSTheo A #19]	24.4
UGUAUGGACUGAAGGAGCGGGUUGAUAACCUGAGGAUCAUCCAGGUAAAAGGCGAAAGCCACCCAGGUAGGUCGCAGUCCAUACU	199
UCGUGUGUUUCGGAUACCAGUGAAAUCGAUACAUGAGGAUCACCCAUGUGAGAGGAUGUACACCCUUGGCAGCUGGCUGUUGCGG [zezmullin]	24
UUGUUAUACGGAAGGAGCGUGUAAGAUUAAGAACAUGAGGAUCACCCAUGUUUUAAGGGAACACAGGUAGGUCGCCGUAUAGUGG [11.P]	16.4

Same assay, conditions: Eterna round: R107; input ligand: none

Sequence	apparent KD of MS2 coat protein [nM]
GCAUCCUAGUCGGCCGCCACUGACAUGAGGAUCACCCAUGUACAUGAGGAUCACCCAUGUUGUAGCAGGACCGGGACUAGGAUGC [SS Tryp B #17]	259
AUAACAUGAGGAUCACCCAUGUAAGCUGAAGGAGCGGACGAAAGUCCAGGUAGGUCGCAGCGCUCCUUCACCUCAUGAGAAGGAG [(M1)-(M2)-(Arg1)-(Arg2)-(A)'-(M)'-(A)''_Design2]	23
CGGUAACCACAUGAGGAUCACCCAUGUGAAGGAGCGGCGAAUAAGCCAGGUAGGUCGCGCAUGAAUAAAUCAUGUAGGUGCCGAA [XArg-A 15 NuPack]	48.4
UACAUGAGGAUCACCCAUGUGUAGAGGGAUACCAGUGACAGUAAGCACCCUUGGCAGCCCGUGAACAAAGGGUGGGCAAAAUAGU [#16 Exclusion-TheophyllineA]	39.2
UCGCUCGCCGUAAGGCGAGCGAGUUGCGAUACCAGCCCGGAAACGGGCCCUUGGCAGCGCACAUGAGGAUCACCCAUGUCAUGUU [#1 Exclusion - Theophylline A Attempt #5 (HarryS)]	19.5
GGAUAGGACACGGCCGCCACUGCCUAGGAUACUAGCAACAUUUGGGUACAAGAGGAUCACCCUUGUAGGACCGGGUGUCCUAUCG	25
GAUAUGUAUCGAAGGAGCGGCCCUUGAUCCUCAUGAGACAUGAGGAUCACCCAUGUCUCGGGCCAGGUAGGUCGCGAUAUAUAUC [Astros-omei-mod3]	18.4
AUCGCACCUGGUGAUACCAGCAAUUGCUCGUGACAUGAGGAUCACCCAUGUGGCCAGUGAUGCCCUUGGCAGCAUGGUCGGUGCA [Same State - Theophylline B (Freestyle 25)]	317
CUAUAAUAUAGAAGGAGCGUCGAAAAUGGGUAAACAUGAGGAUCACCCAUGUAAAGGGAACGACAGGUAGGUCGCUAUAUUAUAG [AstromonsSSArgB#12]	228
UUGUUAUACGGAAGGAGCGUGUAAGAUUAAGAACAUGAGGAUCACCCAUGUUUUAAGGGAACACAGGUAGGUCGCCGUAUAGUGG [11.P]	10

Same assay, conditions: Eterna round: R107; input ligand: theophylline 20 uM

Sequence	apparent KD of MS2 coat protein [nM]
GCAUCCUAGUCGGCCGCCACUGACAUGAGGAUCACCCAUGUACAUGAGGAUCACCCAUGUUGUAGCAGGACCGGGACUAGGAUGC [SS Tryp B #17]	277
AUAACAUGAGGAUCACCCAUGUAAGCUGAAGGAGCGGACGAAAGUCCAGGUAGGUCGCAGCGCUCCUUCACCUCAUGAGAAGGAG [(M1)-(M2)-(Arg1)-(Arg2)-(A)'-(M)'-(A)''_Design2]	31.4
CGGUAACCACAUGAGGAUCACCCAUGUGAAGGAGCGGCGAAUAAGCCAGGUAGGUCGCGCAUGAAUAAAUCAUGUAGGUGCCGAA [XArg-A 15 NuPack]	69.7
GAGCUGAUGUAGGCCGGAUAUCCGGGAGAUACCAGUACAGAAAUGUACCCUUGGCAGCUCUUUCCUACAUGAGGAUCACCCAUGU [Ex Theophylline A 28]	21.7
AAUAACAUGAGGAUCACCCAUGUAAAAGAUACCAGAUGCAUGAUGAUCCCUUGGCAGCUUAAACGCGAUUGAUUACAAUCGCGAA [Mat - Same State Theophlline A - Mod of Eli - D10]	71.9
UACAUGAGGAUCACCCAUGUGUAGAGGGAUACCAGUGACAGUAAGCACCCUUGGCAGCCCGUGAACAAAGGGUGGGCAAAAUAGU [#16 Exclusion-TheophyllineA]	60.3
CGAUCUUUCGAAAGAAGGAUCUUGUCUGAUACCAGAGACGAAAGUCUCCCUUGGCAGCAGUGCCAACAUGAGGAUCACCCAUGUU [Theophylline A 11]	17.6
GUUAUAUUAAUUGAUACCAGCGAGAAAACAUGAGGAUCACCCAUGUUCGCCCAUGUUAAGCGCCCUUGGCAGCAAUUUUAUUAGC [AstrosExyTheB#2]	44.3
ACAUGAGGAUCACCCAUGUGCAGAACGGAUACCAGCGUCCUGGUACGCCCUUGGCAGCCGGACAUGAGGAUCACCCAUGUGUGGA [Exclusion Theophylline A GF29]	161
UCGCUCGCCGUAAGGCGAGCGAGUUGCGAUACCAGCCCGGAAACGGGCCCUUGGCAGCGCACAUGAGGAUCACCCAUGUCAUGUU [#1 Exclusion - Theophylline A Attempt #5 (HarryS)]	35.1
GGAUAGGACACGGCCGCCACUGCCUAGGAUACUAGCAACAUUUGGGUACAAGAGGAUCACCCUUGUAGGACCGGGUGUCCUAUCG	38.6
UGUAGUACCAGACAUGAGGAUCACCCAUGUCGAGGACCGGUACGGCCGCCACUCGGCAGUUUGCGUCCUCAGGUACUCCGGGUAA [Dianreti]	18.5
AGUACCAAUGAGGAUACCAGAGUGCGACGCCGAAACCUUGACAUGAGGAUCACCCAUGUACUCCCUUGGCAGCCUGUACUUGCCA [theeternabot_exclusion_MS2_Theo_B_17]	40.7
AAGAAGUUUUGAUUUUUAUGAAGUAGUGAUACCAGUCAAGAAAGAGACCCUUGGCAGCGCAACAUGAGGAUCACCCAUGUAAGAA [A random design]	26.7
ACGACGCAUACAGAUACCAGUAGCCGAGAAACAUGAGGAUCACCCAUGUCGAGCGACAACUGCCCUUGGCAGCUGUAUGCGUCAG [SSTheo B #12]	10.3
